From PMC7618119

What was measured:
[1] = target: human μ-opioid receptor-RlucII (human) (UniProt P35372)
[2] = target: rat HA-μ-opioid receptor (rat) (UniProt P33535)
[3] = target: human μ-opioid receptor (AtT20FlpInMOR cells) (human) (UniProt P35372)

Sequence of UniProt P33535 (P33535 whole entry): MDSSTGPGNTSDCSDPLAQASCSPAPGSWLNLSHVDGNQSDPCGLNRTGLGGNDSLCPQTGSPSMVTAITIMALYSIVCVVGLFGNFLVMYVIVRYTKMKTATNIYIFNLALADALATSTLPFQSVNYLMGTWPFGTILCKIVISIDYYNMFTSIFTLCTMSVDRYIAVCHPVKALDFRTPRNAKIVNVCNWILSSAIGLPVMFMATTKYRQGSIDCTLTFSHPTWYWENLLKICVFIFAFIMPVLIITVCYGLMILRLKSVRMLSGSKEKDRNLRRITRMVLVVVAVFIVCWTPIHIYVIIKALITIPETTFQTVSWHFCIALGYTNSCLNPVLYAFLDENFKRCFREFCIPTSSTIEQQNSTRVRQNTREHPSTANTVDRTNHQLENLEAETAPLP

- β-arrestin 2 translocation BRET (μ-opioid receptor-RlucII with β-arrestin-2-GFP) in HEK293T cells, agonist pEC50, first set (log M (printed under pEC50)) [1]: -6.12
- β-arrestin 2 translocation BRET (μ-opioid receptor-RlucII with β-arrestin-2-GFP) in HEK293T cells, agonist pEC50, second set (log M (printed under pEC50)) [1]: -6.33
- Gi protein activation BRET (decrease of BRET between Gαi1-RlucII and GFP10-Gγ2) in HEK293T cells, agonist pEC50, first set (log M (printed under pEC50)) [2]: -6.82
- Gi protein activation BRET (decrease of BRET between Gαi1-RlucII and GFP10-Gγ2) in HEK293T cells, agonist pEC50, second set (log M (printed under pEC50)) [2]: -6.99
- apparent rate constant of dissociation (koff): decay of the membrane potential response to the EC75 concentration after naloxone 10 μM, AtT20 cells [3]: > 0.126 s⁻¹
- apparent rate of dissociation (t1/2): decay of the membrane potential response to the EC75 concentration after naloxone 10 μM, AtT20 cells [3]: < 5.5 s
- membrane potential dye fluorescence (hyperpolarisation) in μ-opioid receptor-expressing AtT20 cells, agonist pEC50, first set of experiments (log M (printed under pEC50)) [3]: -7.98
- membrane potential dye fluorescence (hyperpolarisation) in μ-opioid receptor-expressing AtT20 cells, agonist pEC50, second set of experiments (log M (printed under pEC50)) [3]: -8.12
Substance: [D-Ala^2, N-MePhe^4, Gly-ol]-enkephalin (peptide)
